Test [1] addresses T1, recombinant human ANGPTL3 (rhANGPTL3) (SEQ ID NO:1) (human) (UniProt Q9Y5C1).
T1 sequence: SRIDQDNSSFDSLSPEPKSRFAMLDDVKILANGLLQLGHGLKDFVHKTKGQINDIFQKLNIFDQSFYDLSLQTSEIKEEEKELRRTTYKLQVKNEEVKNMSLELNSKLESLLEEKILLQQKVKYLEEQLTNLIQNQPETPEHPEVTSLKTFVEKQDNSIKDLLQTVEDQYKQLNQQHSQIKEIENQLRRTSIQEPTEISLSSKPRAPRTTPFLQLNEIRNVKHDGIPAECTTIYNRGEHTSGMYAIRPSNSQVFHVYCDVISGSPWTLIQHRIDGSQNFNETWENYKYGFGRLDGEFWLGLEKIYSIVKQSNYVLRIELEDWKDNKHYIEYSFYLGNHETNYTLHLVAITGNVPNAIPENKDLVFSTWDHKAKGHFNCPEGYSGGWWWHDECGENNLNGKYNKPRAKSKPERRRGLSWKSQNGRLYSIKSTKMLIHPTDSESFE
Put plainly: SE-UPLC of antibody mixed with rhANGPTL3 (1:3 molar ratio), run buffer pH 7.4.

For test [2], the target named is T1, recombinant human ANGPTL3 (rhANGPTL3) (SEQ ID NO:1) (human). Put plainly: cell-based or functional assay.
For test [3] the target is unchanged. Put plainly: SE-UPLC of antibody mixed with rhANGPTL3 (1:3 molar ratio); change of mean retention time from pH 7.4 to 6.0.
For test [4] the target is unchanged. Put plainly: SE-UPLC of antibody mixed with rhANGPTL3 (1:3 molar ratio), run buffer pH 6.0.

Chain of evinacumab sequence identical analogue (SIA) (antibody) (VH): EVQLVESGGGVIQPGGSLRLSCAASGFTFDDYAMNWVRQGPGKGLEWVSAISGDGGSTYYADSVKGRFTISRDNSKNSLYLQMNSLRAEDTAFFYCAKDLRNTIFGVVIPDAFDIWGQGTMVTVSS
Chain of evinacumab sequence identical analogue (SIA) (antibody) (VL): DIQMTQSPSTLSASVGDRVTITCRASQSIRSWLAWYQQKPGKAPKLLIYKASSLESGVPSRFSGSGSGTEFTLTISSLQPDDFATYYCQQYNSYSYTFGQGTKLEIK

Take “evinacumab sequence identical analogue (SIA) (antibody)”: in test [1], the MRT (mean retention time of immune complex), pH7.4 stood at 3.72 min and the RT (retention time of immune complex), pH7.4 stood at 3.72 min. Also, the Average relative IC50 (inhibition of rhANGPTL3-mediated LPL inhibition) (relative to evinacumab SIA) in test [2] was found to be 1. In addition, the MRT shift, pH7.4 -> pH6.0 in test [3] is 0.1 min. Further, in test [4], the MRT (mean retention time of immune complex), pH6.0 was found to be 3.82 min and the RT (retention time of immune complex), pH6.0 is 3.83 min.
